By Kd is commonly meant a measure of binding affinity in units of concentration. Low values mean tighter binding, high ones weaker binding.

This experiment deals with Prostate Stem Cell Antigen (PSCA) (human, UniProt O43653 12-83). The experiment is described as follows: flow cytometry (293T-PSCA cells).
Prostate Stem Cell Antigen (PSCA), sequence (O43653 12-83): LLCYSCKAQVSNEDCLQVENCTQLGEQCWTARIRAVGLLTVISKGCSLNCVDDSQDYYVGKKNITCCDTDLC

B1: scFv(h-AM1)-BAP (scFv)
scFv: DAAQPARRARRTKLGTELGSEVQLLESGGGLVQPGGSLRLSCVASGFTFSSYTMSWVRQAPGKGLEWVSYIHNGGGHTYYADSVKGRFTISRDNSKNTLYLQMNSLRAEDTAVYYCTRRMYYGNSHWYFDVWGAGTRVTITSAKTTPPSVYGGGGSGGGGSGGGGSTNSDIQMTQSPSSLSASVGDRVTITCRTSQSISNYLNWYQQKPGKAPKLLIYYTLKLNSGVPSRFSGSGSGTDFTLTISSLQPEDFATYYCQQSKTLPWTFGGGTKLEIKRADAAPTVSGPEQKLISEEDLNSAVDMSGLNDIFEAQKIEWHEGAPSSHHHHHH
modifications: mono-biotinylated at the C-terminal BAP (Bio-Tag)
B1 yielded a Kd of 0.744 µM.

B2: scFv(AM1)-P-BAP (scFv)
scFv: DAAQPARRARRTKLGTELGSQVKLQESGGGLVQPGGSLKLSCVASGFTFSSYTMSWVRRTPEKRLEWVAYIHNGGGHTYYPDTIKGRFTISRDNAKNTLFLEMSSLKSEDTAMYYCTRRMYYGNSHWYFDVWGAGTSVTVSSAKTTPPSVYGGGGSGGGGSGGGGSTNSDIVMTQSPSSLSASLGDRVTINCRTSQDISNYLNWYQLTPDGTVKLLIYYTLKLNSGVPSRFSGSGSGTDYSLTINNLEKEDFATYFCQQSKTLPWTFGGGTKLEIKRADAAPTVSGPKLSSKLKVTVNGTAYDVDVDVDKSHENPMGTILFGGGTGGAPAPAAGGAGAGKAGEGEIPAPLAGTVSKILVKEGDTVKAGQTVLVLEAMKMETEINAPTDGKVEKVLVKERDAVQGGQGLIKIGDLELIEGSSGPEQKLISEEDLNSAVDHHHHHH
modifications: mono-biotinylated at the C-terminal P-BAP (PSTCD biotin acceptor domain) when produced in 293T-huBirA cells
On to B2, for which the Kd is 16.6 µM.
